Positions count from the first letter of the chain named.

These results are taken from US20180280504A1, “GLYCAN-INTERACTING COMPOUNDS AND METHODS OF USE” (SIAMAB THERAPEUTICS, INC., priority 2014, published 2018).

For series [1], the system named is MDA-MB-231 parental cells (MDA-STn−). The series is described as follows: Flow cytometry-based analysis of antibody binding, parental cells. More on the design: species or system human. The procedure: Flow cytometry-based analysis is carried out to elucidate the curve-dose response for binding of antibodies to cell surface antigens. For these analyses, three cell lines are employed.
MDA-MB-231 cells are human breast cancer cells. They are grown in Earle's Minimum Essential Medium supplemented with 10% fetal calf serum (FCS), 100 μg/ml penicillin, 100 UI/ml streptomycin and 45 μg/ml gentamycin. MCF-7 cells are also human breast cancer cells and are grown under the same conditions as MDA-MB-231 cells. Stably transfected versions of MDA-MB-231 and MCF-7 cells (clone TAH3.P10 for MDA-MB-231 cells and clone A12.1 for MCF-7 cells) that over express GalNAc α2,6-sialyltransferase (ST6GalNAc 1,) are also cultured under the same conditions with the exception of an added 1 mg/ml of G418 to support cells expressing the transgene. ST6GalNAc 1 is an enzme capable of sialylating GalNAc. […]
For analysis, cells are harvested using StemPro Accutase (Life Technologies, Carlsbad, Calif.) and washed with PBS comprising 5% FBS before pelleting by light centrifugation. Cell numbers and viability are determined by trypan blue dye exclusion analysis and cell concentrations are adjusted to 5×10^6 cells/ml in PBS with 5% FBS. […] Cells are combined with 50 μl solutions of antibody being analyzed or control antibodies and incubated for 1 hour at 4° C. […]

Series [2] is described as follows: E3-STn allograft model, complete blood count (CBC). More on the design: White blood cells Level: unit not given here. Particulars: CBC at end of study, 5 mice. The series is classed as in vivo, mouse. As to the method: At the end of the study, a complete blood count (CBC) was obtained for 5 mice treated with antibody as well as 3 mice treated with vehicle control. Blood was collected from all mice via terminal cardiac puncture and processed for plasma. Blood was placed in EDTA microtainer tubes (BD & Co., Franklin Lakes, N.J.) then centrifuged. Plasma layers were then removed and snap frozen in cryo vials (Thermo-Fisher Scientific, Rochester, N.Y.) and stored at −80° C. until analysis. Analysis was carried out to look for levels of a variety of factors.

Series [3] is described as follows: PAA-glycan ELISA, GcSTn-PAA. It counts as binding. Particulars: 200 ng/well PAA antigen; 1:5 dilutions from 1 μM. As to the method: 18D2 and 18C7 antibodies were further characterized by ELISA comprising antigens other than BSM. ELISAs were carried out according to Example 2, with the exception that ELISA plates were coated with biotinylated polyacrylamide (PAA) particles comprising either AcSTn (AcSTn-PAA), GcSTn (GcSTn-PAA) or Tn (Tn-PAA) as antigens. These particles present the antigens in a multivalent format. Briefly, 96-well ELISA plates were coated with 200 ng/well of each PAA antigen and blocked with PBS with 1% OVA. Antibodies were serially diluted at 1:5 in PBS with 1% OVA using an initial concentration of 1 μM. After blocking, antibodies were added to the plates and plates were incubated for 1.5 hours at room temperature. Binding of anti-STn antibodies was detected using a goat anti-mouse IgG-HRP conjugated antibody (Jackson Immunoresearch Laboratories, West Grove, Pa.). The reaction was developed by addition of HRP substrate and hydrogen peroxide. The reaction was then stopped by the addition of sulfuric acid (1.6 M). Optical densities were measured at 490 nm. A dose-response curve was generated using readings at each concentration tested and a non-linear regression curve was generated with four-parameter modeling to determine EC50 values for each antibody.
Background: In an ELISA, binding on a coated surface is turned into a signal by an enzyme label.

Series [4] can be described thus: Glycan array, 9-O-acetylated GcSTn. The series is classed as binding. Particulars: glycan microarray, Cy3 anti-mouse IgG. The procedure:
Optimized glycan arrays comprise 71 chemically synthesized and well-defined glycans, most of which comprise Neu5Ac and Neu5Gc glycan pairs.
300 ml of epoxy blocking buffer is prepared by combining 15 ml of 2 M Tris buffer (pH 8) with 0.9 ml of 16.6 M ethanolamine and 284.1 ml of distilled water. The solution was brought to a final pH of 9.0 with HCl. The solution is filtered using a 0.2 μM nitrocellulose membrane. The epoxy buffer solution as well as 1 L of distilled water are pre-warmed to 50° C. Glass slides are arranged in a slide holder and quickly submerged in a staining tub with the warmed epoxy blocking buffer. Slides are incubated in the epoxy blocking buffer for 1 hour at 50° C. with periodic shaking to deactivate epoxy binding sites. Next, slides are rinsed and blocked with PBS with 1% OVA at 25° C. for one hour. Serum samples with polyclonal antibodies (1:1000) or purified monoclonal antibodies (1 ug/mL), are diluted in PBS with 1% OVA and added to the glycan array for one hour at 25° C. After extensive washing, binding of antibodies are detected by incubating glycan microarray slides with Cy3-conjugated anti-mouse IgG (Jackson Immunoresearch, West Grove, Pa.) for one hour. Slides are then washed extensively, dried and scanned with a Genepix 4000B scanner (Laser at 100%; gain at 350; 10 μm pixels). […]

B1: 8C11: anti-STn mouse monoclonal, IgG2b κ, from mouse #4407; VH SEQ ID NO: 8, VL SEQ ID NO: 9 (antibody, V domains shown)
VH: QVQLKESGPGLVAPSQSLSITCTVSGFSLTSYGVSWVRQPPGKGLEWLGVIWGDGSTNYHSALISRLIISKDNSKSQVFLKLNSLQTDDTATYYCTKGFTYWGQGTLVTVSA
VL: QIVLTQSPAIMSASPGEKVTMTCSASSSVSYMHWYQQKSGTSPKRWIFDTSKLASGVPARFSGSGSGTSYSLTISSMEAEDAATYYCQQWSSNLLTFGAGTKLELK
As to B1, the “binding to MDA parental cells lacking STn” value in series [1] was “No binding”.

B2: 7G9: anti-STn mouse monoclonal, IgG2b κ, from mouse #4407; VH SEQ ID NO: 12, VL SEQ ID NO: 9 (antibody, V domains shown)
VH: B1 VH with S17N, S35N, D72E, D88N, T100V
VL: B1 VL
Consider B2, for which, in series [2], the “% Lymphocytes Level” value is recorded as 44.4%, the “% Monocytes Level” value is 4.6%, the “% Neutrophils (Segmented) Level” value is given as 51.0% and the “Hematocrit Level” value came out at 46.9%. Also, in series [2], the “Hemoglobin Level” value was 16.0 g/dL, the “Lymphocytes Level” value is on record as 5.6 10^9/L, the “Mean Corpuscular Hemoglobin Concentration Level” value was determined as 34.2 g/dL and the “Mean Corpuscular Hemoglobin Level” value stood at 16.2 pg. Also, in series [2], the “Mean Corpuscular Volume Level” value was determined as 47.4 fL, the “Mean platelet volume Level” value was determined as 7.4 fL, the “Monocytes Level” value is on record as 0.7 10^9/L and the “Neutrophils Level” value is on record as 7.6 10^9/L. In series [2], the “Platelet Cell Distribution Width Level” value was 32.2%, the “Platelet count Level” value is recorded as 712.2 10^3, the “Red Cell Distribution Width Level” value was determined as 19.0% and the “Red blood cells Level” value is listed as 9.9 10^6/L. The “White blood cells Level” value in series [2] turned out to be 13.9.

B3: 18C7: anti-STn mouse monoclonal, IgG2c κ, from mouse #4436; VH SEQ ID NO: 4, VL SEQ ID NO: 5 (antibody, V domains shown)
VH: QVTLKESGPGILQPSQTLSLTCSFSGFSLSTFGMGVGWIRQPSGKGLEWLAHIWWDDDKYYNPALKSRLTISKDTSKNQVFLKIANVDTADTATYYCARIAYYYGSERDYWGQGTTLTVSS
VL: QIVLTQSPAIMSASPGEKVTMTCSASSSISYMHWYHQKPGTSPKRWIYDTSKLASGVPARFSGSGSGTSYSLTISSMEAEDAATYYCHQRSSYTFGGGTKLEIKR
Broadly, the EC50 is the concentration that produces a half-maximal response. Turning to B3, in series [3], it took 2.59 nM to reach a half-maximal effect (EC50). Also, in series [4], the “mean fluorescence intensity, Neu5,9Ac5Gc-α2,6-GalNAc” value is given as “about 2,000”.
